Measured values: patent publication US20210380702A1 (Regeneron, published 2021)
Values joined by “and” are separate entries in the source; they are usually repeats but may differ in a detail not shown here. Equal values may be shown once.

Assays:
[1] = biological target: T1, full length human PD-L1 (amino acids 1 to 290 of NP_054862.1) on transfected cells (human, UniProt Q9NZQ7 19-290); experiment: FACS, 100 nM antibody
T1 construct: also called HEK293/hPD-L1; Raji/hPD-L1
Method: (§1) The binding of anti-PD-L1 antibodies to a human embryonic kidney cell line (HEK293; ATCC, #CRL-1573) stably transfected with full length human PD-L1 (amino acids 1 to 290 of accession number NP_054862.1) (HEK293/hPD-L1) was determined by FACS.
(§2) For the assay, adherent cells were detached using enzyme-free dissociation buffer and blocked with complete medium. Cells were centrifuged and resuspended at a concentration of 2.8×10\hat{ }6 cells/mL in cold PBS containing 2% FBS. […] Cells were washed with D-PBS containing 2% FBS to remove unbound secondary detection reagents and fluorescence measurements were acquired using a HyperCyte (IntelliCyt, Inc.) flow cytometer. Data was analyzed using HyperCyte software.

[2] = biological target: T1, full length human PD-L1 (amino acids 1 …); experiment: cell-based or functional assay
[3] = biological target: T1, full length human PD-L1 (amino acids 1 …); experiment: FACS, 100 nM antibody, HEK293/hPD-L1 cells
Method: as §1, §2

[4] = biological target: T2, recombinant human PD-L1 (amino acids 19-239 of NP_054862.1) expressed with a C-terminal mouse IgG2a Fc tag (human); experiment: competition ELISA: 0.5 nM hPD-L1-mFc binding to coated hPD-1-hFc
T2 construct: called dimeric; also called hPD-L1-mFc
Method: (§3) The ability of monoclonal anti-PD-L1 antibodies to block human PD-L1 from binding to its binding partners, the human PD-1 and the human B7-1 receptors, was measured using two competition sandwich ELISA formats.
(§4) A dimeric human PD-1 protein comprised of a portion of the extracellular domain (amino acids 25-170 of accession number NP_005009.2 with a C93S change) that was expressed with a C-terminal hFc tag (hPD-1-hFc; SEQ ID: 350) and a dimeric human B7-1 protein comprised of a portion of the extracellular domain expressed with C-terminal hFc tag and hexahistidine tags (hB7-1-hFc-6His; R&D Systems, #140-B1) were separately coated at 2 μg/mL on a 96-well microtiter plate in a PBS buffer overnight at 4° C. […] These antibody-protein complexes were then incubated for 1 hour at room temperature (RT). […] The complexes were allowed to bind to the coated plates for 1 hour at RT. […] Samples were developed with a TMB solution (BD Biosciences, #51-2606KC and #51-2607KC) to produce a colorimetric reaction and neutralized with 1M sulfuric acid before measuring absorbance at 450 nm on a Victor X5 plate reader. Data analysis used a sigmoidal dose-response model within Prism™ software.

[5] = biological target: T2, recombinant human PD-L1 (amino acids …); experiment: competition ELISA: 8 nM hPD-L1-mFc binding to coated hB7-1-hFc-6His
Method: as §3, §4

[6] = biological target: T2, recombinant human PD-L1 (amino acids …); experiment: BLI (Octet Red96): 100 nM hPD-L1-mFc + 500 nM mAb on captured hPD-1-hFc, 25C
Method: Inhibition studies for anti-PD-L1 monoclonal antibodies expressed with mouse Fc were performed on an Octet Red96 instrument. […] Approximately 0.8 nm to 1.2 nm of recombinant human PD-1 expressed with a C-terminal human IgG1 Fc tag (hPD-1-hFc; SEQ ID: 350) was captured using anti-human IgG Fc capture biosensors. […] The entire experiment was performed at 25° C. in Octet HBST buffer (0.01 M HEPES pH7.4, 0.15M NaCl, 3 mM EDTA, 0.05% v/v Surfactant P20, 0.1 mg/mL BSA) with a plate shaking at a speed of 1000 rpm. The biosensors were washed in Octet HBST buffer in between each step of the experiment. The real-time binding response was monitored during the course of the experiment and the binding response at the end of every step was recorded.

[7] = biological target: T3, recombinant cynomolgus monkey PD-L1 expressed with a C-terminal mouse IgG2a Fc tag (cynomolgus monkey); experiment: SPR (Biacore), mAb captured, 37C
T3 construct: also called MfPD-L1-mFc; monkey PD-L1-mFc

[8] = biological target: T4, recombinant human PD-L1 (amino acids 19-239 of NP_054862.1) expressed with a C-terminal human IgG1 Fc tag (human); experiment: SPR (Biacore 3000): 100 nM hPD-L1-hFc + 500 nM mAb on captured hPD-1-mFc, 25C
T4 construct: also called hPD-L1-hFc
Method: Next, inhibition studies for anti-PD-L1 monoclonal antibodies expressed with human Fc were performed on Biacore 3000 instrument. […] The entire experiment was performed at 25° C. in HBST running buffer (0.01 M HEPES pH7.4, 0.15M NaCl, 3 mM EDTA, 0.05% v/v Surfactant P20). The real-time binding responses were monitored during the entire course of the experiment and the binding response at the end of every step was recorded.

T3 sequence (chain, as listed by the source limits assumed): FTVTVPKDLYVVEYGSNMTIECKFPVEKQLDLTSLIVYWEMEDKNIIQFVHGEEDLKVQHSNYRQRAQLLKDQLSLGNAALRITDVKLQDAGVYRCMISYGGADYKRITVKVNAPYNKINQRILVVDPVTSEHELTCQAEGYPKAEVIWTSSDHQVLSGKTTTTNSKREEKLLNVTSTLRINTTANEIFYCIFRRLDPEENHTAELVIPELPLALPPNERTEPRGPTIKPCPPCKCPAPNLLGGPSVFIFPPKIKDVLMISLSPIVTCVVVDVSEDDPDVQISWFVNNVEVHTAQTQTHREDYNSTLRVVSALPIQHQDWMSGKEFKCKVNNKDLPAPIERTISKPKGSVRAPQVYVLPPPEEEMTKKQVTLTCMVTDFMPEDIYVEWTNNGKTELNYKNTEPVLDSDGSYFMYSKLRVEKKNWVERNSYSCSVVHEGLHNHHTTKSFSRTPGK
T2 sequence (chain, as listed by the source limits assumed): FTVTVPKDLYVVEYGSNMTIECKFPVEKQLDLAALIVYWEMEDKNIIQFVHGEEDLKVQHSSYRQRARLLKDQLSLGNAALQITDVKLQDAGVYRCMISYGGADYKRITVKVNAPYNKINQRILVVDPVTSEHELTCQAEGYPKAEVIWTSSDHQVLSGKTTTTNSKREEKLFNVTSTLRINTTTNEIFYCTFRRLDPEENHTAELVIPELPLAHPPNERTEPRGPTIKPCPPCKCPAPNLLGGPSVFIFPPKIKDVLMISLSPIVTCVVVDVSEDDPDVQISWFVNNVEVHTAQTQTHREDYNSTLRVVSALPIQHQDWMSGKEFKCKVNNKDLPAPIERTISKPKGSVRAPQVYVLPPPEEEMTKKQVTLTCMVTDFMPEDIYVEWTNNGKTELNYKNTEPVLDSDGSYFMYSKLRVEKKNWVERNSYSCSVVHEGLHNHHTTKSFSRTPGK
T1 sequence (Q9NZQ7 19-290 limits assumed): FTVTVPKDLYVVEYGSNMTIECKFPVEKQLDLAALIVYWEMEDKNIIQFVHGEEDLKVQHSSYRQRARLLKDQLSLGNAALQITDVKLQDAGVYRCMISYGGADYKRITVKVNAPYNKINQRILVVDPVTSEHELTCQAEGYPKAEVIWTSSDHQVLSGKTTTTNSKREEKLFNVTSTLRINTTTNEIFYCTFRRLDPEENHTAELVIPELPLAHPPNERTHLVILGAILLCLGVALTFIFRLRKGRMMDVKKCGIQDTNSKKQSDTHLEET
T4 sequence (chain, as listed by the source limits assumed): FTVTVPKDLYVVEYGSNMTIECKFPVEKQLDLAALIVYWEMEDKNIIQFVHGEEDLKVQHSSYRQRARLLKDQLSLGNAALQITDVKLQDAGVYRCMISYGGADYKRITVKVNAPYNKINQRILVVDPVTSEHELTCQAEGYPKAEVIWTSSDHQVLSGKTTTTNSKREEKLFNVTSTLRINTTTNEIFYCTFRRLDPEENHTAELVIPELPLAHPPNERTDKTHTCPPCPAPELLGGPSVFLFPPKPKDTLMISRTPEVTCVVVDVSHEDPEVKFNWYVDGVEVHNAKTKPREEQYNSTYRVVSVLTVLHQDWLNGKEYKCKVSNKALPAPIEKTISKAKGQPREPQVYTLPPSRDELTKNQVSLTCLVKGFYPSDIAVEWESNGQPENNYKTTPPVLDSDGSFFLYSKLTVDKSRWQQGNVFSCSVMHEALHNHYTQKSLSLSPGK

Row | Binder | Ratio of HEK293/hPD-L1 to HEK293 parental cells [1] | Concentration [M] of Antibody at 125% activation [2] [M] | Emax mean [%] @ 100 nM [2] [%] | MFI [3] [MFI] | % maximum blocking [4] [%] | IC50 [4] [nM] | % maximum blocking [5] [%] | IC50 [5] [nM] | % Blocking [6] [%] | Kd [7] | koff [7] | kon [7] | t1/2 [7] | % Blocking [8] [%]
1 | H2aM8314N (antibody, V domains shown, human variable regions, mouse IgG2 Fc (H2aM prefix); also called H2M8314N) VH: EVQLVESGGGVVRPGGSLRLSCAASGFTFDDYGMTWVRQAPGRGLEWVSGIHWHGKRTGYADSVKGRFTISRDNAKKSLYLQMNSLKGEDTALYHCVRGGMSTGDWFDPWGQGTLVIVSS VL: DIQMTQSPSSLSASLGDRVTITCRASQSINSYLNWYQQKPGKAPKLLIYVASSLQSGVPSRFSGSGSGTEFTLTISNLQPEDFATYYCQQSYSTPPITFGQGTRLEIK | 95 | 1.44e-11 | 235 | 195000 | 93 | < 0.25 | 97 | < 4 | 94 |  |  |  |  | 
2 | H2aM8321N (antibody, V domains shown, human variable regions, mouse IgG2 Fc (H2aM prefix); also called H2M8321N) VH: EERLVESGGDLVQPGGSLRLSCAASGITVGTNYMNWVRQAPGKGLEWVSVISSGGNTHYADSVKGRFIMSRQTSKNTLYLQMNSLETEDTAVYYCARGIRGLDVWGQGTMVTVSS VL: DIQMTQSPSSLSASVGDRVTITCRASQSMSSYLNWYQQKPGRAPKLLIFAASSLQSGVPSRFSGSGSGTDFTLTISSLQPEDFATYYCQQSYSTPPITFGQGTRLEIK | 85 |  | 117 | 112000 | 10 |  | -124 |  | -94 |  |  |  |  | 
3 | H2aM8317N (antibody, V domains shown, human variable regions, mouse IgG2 Fc (H2aM prefix); also called H2M8317N) VH: EVQLVESGGGLVQPGGSLRLSCAASGFTVGSNYMNWVRQAPGKGLEWVSVIYSGGSTYYADSVKGRFTISRLTSKNTLYLQMSSLRPEDTAVYYCARGIRGLDVWGQGTTVTVSS VL: DIQMTQSPSSLSASVGDRVTITCRASQTINIYLNWYQQKPGRAPRLLIYAASSLQSGVPSRFSGSGSGTDFTLTISSLQPEDFATYYCHQSYSTPPITFGQGTRLEIK | 53 |  | 109 | 67600 | -11 |  | -166 |  | -87 |  |  |  |  | 
4 | H1H9364P2 (antibody, V domains shown, human IgG1 Fc (H1H prefix)) VH: EVQLVESGGGLVQPGRSLRLSCAASGFTFDDYALHWVRQAPGKGLEWVSGISWTGGTIDYADSVKGRFTISRDNAKNSLYLQMSSLRTEDTAIYYCTRDIRGNWKYGGWFDPWGQGTLVTVSS VL: not shown | 157 |  |  | 324000 | 100 | < 0.25 | 101 | 4.1 |  | 0.0471 nM and 0.028 nM | 0.000111 s⁻¹ and 6.76e-05 s⁻¹ | 2.36e+06 M⁻¹ s⁻¹ and 2.41e+06 M⁻¹ s⁻¹ | 1.73 h and 2.85 h | 86
5 | H2aM8306N (antibody, V domains shown, human variable regions, mouse IgG2 Fc (H2aM prefix); also called H2M8306N) VH: EVQLVESGGGLVQPGGSLRLSCAASGFTFSRFWMSWVRQAPGKGLEWVANINQDGTEKYYVDSVKGRFTISRDNAKNSLYLQMNSLRAGDTAVYYCANTYYDFWSGHFDYWGQGTLVTVSS VL: not shown | 246 | 3.78e-09 | 167 | 316000 | 99 | < 0.25 | 93 | < 4 | 94 |  |  |  |  | 
6 | H2aM8310N (antibody, V domains shown, human variable regions, mouse IgG2 Fc (H2aM prefix); also called H2M8310N) VH: QVQLVQSGAEVKKPGASVQVSCKASGYSFTGYYIHWVRQAPGQGLEWMGWINPNSGTKKYAHKFQGRVTMTRDTSIDTAYMILSSLISDDTAVYYCARDEDWNFGSWFDSWGQGTLVTVSS VL: DIVMTQTPLSSPVTLGQPASISCRSSQTLVHGDGNTYLSWIQQRPGQPPRLLIYKVSNQFSGVPDRFSGSGAGTDFTLKISRVEAEDVGLYFCMQATHFPITFGQGTRLEIK | 11 |  | 113 | 14900 | 76 | 0.39 | 98 | < 4 | 58 |  |  |  |  | 
7 | H2aM8323N (antibody, V domains shown, human variable regions, mouse IgG2 Fc (H2aM prefix); also called H2M8323N) VH: QVQLVQSGAEVKMPGSSVRVSCKASGGIFSSSTISWVRQAPGQGLEWMGEIIPVFGTVNYAQKFQDRVIFTADESTTTAYMELSSLKSGDTAVYFCARNWGLGSFYIWGQGTMVTVSS VL: EIVLTQSPGTLSLSPGERATLSCRASQSFNFNYLAWYQQKPGQAPRLLIYGASSRATGIPDRFSGSGSGTDFTLTINRLEPEDFGVFYCQQYESAPWTFGQGTKVEIK | 73 | 2.2e-10 | 173 | 163000 | 100 | < 0.25 | 99 | < 4 | 94 |  |  |  |  | 
8 | H2aM8312N (antibody, V domains shown, human variable regions, mouse IgG2 Fc (H2aM prefix); also called H2M8312N) VH: QVHLVQSGAEVKKPGASVKVSCKASGYTFTGYYIHWVRQAPGHGLEWMGWLNPNTGTTKYIQNFQGRVTMTRDTSSSTAYMELTRLRSDDTAVYYCARDEDWNYGSWFDTWGQGTLVTVSS VL: not shown | 115 |  | 75.6 | 158000 | 23 |  | 98 | < 4 | -68 |  |  |  |  | 
9 | H2aM8309N (antibody, V domains shown, human variable regions, mouse IgG2 Fc (H2aM prefix); also called H2M8309N) VH: not shown VL: DIQMTQSPSSLSASVGDRVTITCRTSQGIRNDLGWYQQKPGKAPKRLIYAASSLQSGVPSRFSGSGSGTEFTLTISSLQPEDFATYYCLQHNNYPYTFGQGTKLEIK | 166 | 3.09e-10 | 181 | 193000 | 98 | < 0.25 | 98 | < 4 | 94 |  |  |  |  | 
10 | H1H9329P (antibody, V domains shown, human IgG1 Fc (H1H prefix)) VH: EVQLVESGGGLVQSGGSLRLSCAASGFTFSSYWMSWVRQAPGKGLEWVANIKQDGSEKYYVDSVKGRFTISRDNAKNSLYLQMNSLRADDTAVYYCARDDIVVVPAPMGYYYYYFGMDVWGQGTTVTVSS VL: DIQMTQSPSSLSASVGDRVTITCRASQGIRNDLGWYQQKPGKAPKRLIYAASSLQSGVPSRFSGSGSGTEFTLTISSLQPEDFATYYCLQHNSYPYTFGQGTKLEIK | 188 |  | 124 | 282000 | 100 | < 0.25 | 100 | 4.9 |  | 0.708 nM | 0.00154 s⁻¹ | 2.18e+06 M⁻¹ s⁻¹ | 0.133 h | 97
